Assay results taken from the RNAGym collection of RNA variant scans (doi:10.7554/elife.90254).

B1: OR4K15 (parent)
chain: GUUAACGGUCAUAGGCCAUGGAAACUAGGAGCACCAUUUCGCUGCCAGUGAAGAAAUGAACAAAGAAAAUCUGGGCCAGGCAGGCAUCAAAAGAAAUAGUCUUGCGCUCAACCAGAAAGUCUGUAAUCAUUUUAAGGGUA

Variants of: B1
Assay: self-cleavage, relative activity (ratio to wild type); higher = more cleavage; in vitro, sequencing; the parent is a self-cleaving ribozyme

| Variant | self-cleavage |
| --- | --- |
| GUUAACGGUCAUAGGCCAUGGAAACUAGGAGCACCAUUUCGCUGCCAGUGAAGAAAUGAACAAAGAAAGUCUGGGCCAGGCAGGCAUCAAAAGAAAUAGUCAUGCGCUCAACCAGAAAGUCUGUAAUCAUUUUAAGGGUA [A69G U102A] | 0.58 |
| GUUAACGGUCAUAGGCCAUGGAAACUAGGAGCACCAUUUCGCUGCCAGUGAAGAAAUGAACAAAGAAAGUCUGGGCCAGGCAGGCAUCAAAAGAAAUAGUCUUGCGCUCAACCAGAAAGUCUGCAAUCAUUUUAAGGGUA [A69G U124C] | 1.11 |
| GUUAACGGUCAUAGGCCAUGGAGACUAGGAGCACCAUUUCGCUGCCAGUGAAGAAAUGAACAAAGAAAAUCUGGGCCAGGCAGGCAUCAAAAGAAAUAGUCUUGCGCUCAACCAGAAAGUCUGUAAUCAUUUUAAGAGUA [A23G G137A] | 1.04 |
| GUUAACGGUCAUAGGCCAUGGAAACUAGGAGCACCAUUUCGCUGCCAGUGAAGAAAUGAACAAAGAAGAUCUGGGCCAGGCAGGCAUCAAAAGAAAUAGUCUCGCGCUCAACCAGAAAGUCUGUAAUCAUUUUAAGGGUA [A68G U103C] | 0.96 |
| GUUAACGGUCAUAGGCCAUGGAAACUAGGAGCACCAUUUCGCUGCCAGUGAAGAAAUGAACAAAGAAAAUCCGGGCCAGGCAGGCAUCAAAAGAAAUAGUCUUACGCUCAACCAGAAAGUCUGUAAUCAUUUUAAGGGUA [U72C G104A] | 0.01 |
| GUUAACGGUCAUAGGCCAUGGAAACUAGGAGCACCAUUUCGCUGCCAGUGGAGAAAUGGACAAAGAAAAUCUGGGCCAGGCAGGCAUCAAAAGAAAUAGUCUUGCGCUCAACCAGAAAGUCUGUAAUCAUUUUAAGGGUA [A51G A59G] | 0.89 |
| GUUAACGGUCAUAGGCCAUGGAAACUAGGAGCACCAUUCCACUGCCAGUGAAGAAAUGAACAAAGAAAAUCUGGGCCAGGCAGGCAUCAAAAGAAAUAGUCUUGCGCUCAACCAGAAAGUCUGUAAUCAUUUUAAGGGUA [U39C G41A] | 2 |
| GUUAACGGUCAUAGGCCAUGGAAACUAGGAGCACCAUUUCGCUGCCAGUGAAGAAAUGAACAAAGAAAAUCUGGGCCAGGCUGGCAUCAAAAGAAAUAGUCUUGCGCUCAACCAGAAAGCCUGUAAUCAUUUUAAGGGUA [A82U U120C] | 0.03 |
| GUUAACGGUCAUAGGCCAUGGAAACUAGGAGCACCAUUUCGCUGCCAGUGAAGAAAUGAACAAAGAAGAUCUGGGCCAGGCAGGCAUCAAAAGAAAUAGUCUUGCGCUCAACCAGAAUGUCUGUAAUCAUUUUAAGGGUA [A68G A118U] | 0.83 |
| GUUAACGGUCAUAGGCCAUGGAAACUAGGAGCACCAUUUCGCUGCCAGUGAAGAAAUGAACAAAGAUAAUCUGGGCCAGGCGGGCAUCAAAAGAAAUAGUCUUGCGCUCAACCAGAAAGUCUGUAAUCAUUUUAAGGGUA [A67U A82G] | 0.9 |
| GUUAACGGUCAUAGGCCAUGGAAACUAGGAGCACCAUUUCGCUGCCAGUGAAGAAAUGAACAAAGAAAAUCUGGGCCAGGCAGGCAUCAGAAGAAAUUGUCUUGCGCUCAACCAGAAAGUCUGUAAUCAUUUUAAGGGUA [A90G A98U] | 1.62 |
| GUCAACGGUCAUAGGCCAUGGAAACUAGGAGCACCAUUUCGCUGCCAGUGAAGAAAUGAACAAAGAAAAUCUGGGCCAGGCAGGCGUCAAAAGAAAUAGUCUUGCGCUCAACCAGAAAGUCUGUAAUCAUUUUAAGGGUA [U3C A86G] | 1.05 |
| GUUAACGGUCAUAGGCCAUGGAAACUAGGAGCACCAUUUCGCUGUCAGUGAAGAAAUGAACAAAGAAAAUCUGGGCAAGGCAGGCAUCAAAAGAAAUAGUCUUGCGCUCAACCAGAAAGUCUGUAAUCAUUUUAAGGGUA [C45U C77A] | 0.42 |
| GUUAACGGUCAUAGGCCAUGGAAACUAGGAGCACCAUUUCGCUGCCAGUGAAGAAAUGAACAAAGCGAAUCUGGGCCAGGCAGGCAUCAAAAGAAAUAGUCUUGCGCUCAACCAGAAAGUCUGUAAUCAUUUUAAGGGUA [A66C A67G] | 0.46 |
| GUUAACGGUCAUAGGCCAUGGAAACUAGGAGCACCAUUUCGCUGCCAGGGAAGAAAUGAACAAAGAAAAUCUGGGCCAGGCAGGCACCAAAAGAAAUAGUCUUGCGCUCAACCAGAAAGUCUGUAAUCAUUUUAAGGGUA [U49G U87C] | 1.48 |
| GUUAAUGGUCAUAGGCCAUGGAAACUAGGAGCACCAUUUCGCUGCCAGUGAAGAAAUGAACAAAGAAAAUCUGGGCCGGGCAGGCAUCAAAAGAAAUAGUCUUGCGCUCAACCAGAAAGUCUGUAAUCAUUUUAAGGGUA [C6U A78G] | 0.4 |
| GUUAACGGUCAUAGGCCAUGGAAACUAGGAGCACCAUUUCGCUGCCAGUGAAGAAAUGAACAAAGUAAAUCUGGGCCAGGCAGGCAUCAAAAGAAAUAGUCUUGCGCUCGACCAGAAAGUCUGUAAUCAUUUUAAGGGUA [A66U A110G] | 0.14 |
| GUUAACGGUCAUAGGCCAUAGAAACUAGGAGCACCAUUUCGCUGCCAGUGAAGAAAUGGACAAAGAAAAUCUGGGCCAGGCAGGCAUCAAAAGAAAUAGUCUUGCGCUCAACCAGAAAGUCUGUAAUCAUUUUAAGGGUA [G20A A59G] | 1.19 |
| GUUAACGGUCAUAGGCCAUGGAAACUAGGAGCACCAUUUCGCUGCUAGUGAAGAAAUGAACAAAGAAAAUCUGGGCCAGGCAGGCAUCAAAAGAAAUGGUCUUGCGCUCAACCAGAAAGUCUGUAAUCAUUUUAAGGGUA [C46U A98G] | 0.74 |
| GUUAACGGUCAUAGGCCAUGGAAGCUAGGAGCACCAUUACGCUGCCAGUGAAGAAAUGAACAAAGAAAAUCUGGGCCAGGCAGGCAUCAAAAGAAAUAGUCUUGCGCUCAACCAGAAAGUCUGUAAUCAUUUUAAGGGUA [A24G U39A] | 1.45 |
| GUUAACGGUCAUAGGCCAAGGAAACUAGGAGCACCAUUUCGCUGCCAGUGAAGAAAUGAACAAAGAAAAUCUGGGCCAGGCAGGCAUCAAAAGAAAUAGUCUUGCGCUCAACCAGAAAGCCUGUAAUCAUUUUAAGGGUA [U19A U120C] | 0.79 |

| Variant | self-cleavage |
| --- | --- |
| GUUAACGGUCAUAGGCCAUGGAAACUAGGAGCACCAUUUCGCUGCCAGUGAAGAAAUGAACAAAGAGAAUCUGGGCCAGGCAGGCAUCAAAAGAAAUAGUCUUGCGCUCAACCAGAAAGUCUGUAAUCAUUUUAAGGGUU [A67G A140U] | 1.93 |
| GUUAACGGUCAUAGGCCAUGGAAACUAGGAGCACCAUUUCGCUGCUAGUGAAGAAAUGAACAAAGAAAAUCUGGGCCAGGCAGGCAUCAAAAGAAAUAGUCUUGCGCUCAACCAGAAAGUCUGUAAUCAUCUUAAGGGUA [C46U U131C] | 2.02 |
| GUUAACGGUCAUAGGCCAUGGAAACCAGGAGCACCAUUUCGCUGCCAGUGAGGAAAUGAACAAAGAAAAUCUGGGCCAGGCAGGCAUCAAAAGAAAUAGUCUUGCGCUCAACCAGAAAGUCUGUAAUCAUUUUAAGGGUA [U26C A52G] | 1.82 |
| GUUAACGGUCAUAGGCCAUGGAAACUAGGAGCACCAUUUCACUGCCAGUGAAGAAAUGAACAAAGAAAAUCUGGGCCAGGCAGGCAUCAAAAGAAAUAGUCUUGCGCUCAACCAGGAAGUCUGUAAUCAUUUUAAGGGUA [G41A A116G] | 0.63 |
| GUUAACGGUCAUAGGCCAUGGAAACUAGGAGCACCAUUUCGCUGCCAGUGAAGAAAUGAACAAAGAAAAUCCGGGCCAGGCAGGCAACAAAAGAAAUAGUCUUGCGCUCAACCAGAAAGUCUGUAAUCAUUUUAAGGGUA [U72C U87A] | 0.4 |
| GUUAACGGUCAUAGGCCAUGGAAACUGGGAGCACCAUUUCGCUGCCAGUGAAGAAAUGAACAAAGAAAAUCUGGGCCAGGCGGGCAUCAAAAGAAAUAGUCUUGCGCUCAACCAGAAAGUCUGUAAUCAUUUUAAGGGUA [A27G A82G] | 0.33 |
| GUUAACGGUCAUAGGCCAUGGAAACUAGGAGCACCAUUUCGCUGCCAGUGAAGAAAUGAACAAAGAUAAUCUGGGCCAGGCAGGCAUCAAAAGAAAUAGUCUUGCGCUCAACCAGAAAGUCUGUAAUCAUUUUAGGGGUA [A67U A135G] | 2.46 |
| GUUAACGGUCAUAGGCCAUGGAAACUAGGAGCACCAUUUCGCUGCCAGUGAAGAAAUGAACAAAGAAAAUCUGGGCCAGGCAGGCACCAAAAGAAAUAGUCUUGCGCUCAACCAGAAAGUCUGUAAUUAUUUUAAGGGUA [U87C C128U] | 0.76 |
| GUUAACGGUCAUAGGCCAUGGAAACUAGGAGCACCAUUUCGCUGCCAGUGAAGAAAUGAACAAAGAAAAUCUGGGCCAGGCAGGCAUCAAAAGAAAUAGUCUUGCGCUCGACCAGAAAGUCUGUAAUCAUUUUAAGGGUU [A110G A140U] | 0.18 |
| GUUAACGGUCAUAGGCCAUGGAAACUAGGAGCACCAUUUCGCUGCCAGUGAAGAACUGAACAAAGGAAAUCUGGGCCAGGCAGGCAUCAAAAGAAAUAGUCUUGCGCUCAACCAGAAAGUCUGUAAUCAUUUUAAGGGUA [A56C A66G] | 0.72 |
| GUUAACGGUCAUAAGCCAUGGAAACUAGGAGCACCAUUUCGCUGCCAGUGAAGAAAUGAACAAAGAAAAUCUGGGCCAGGCAGGCAUCACAAGAAAUAGUCUUGCGCUCAACCAGAAAGUCUGUAAUCAUUUUAAGGGUA [G14A A90C] | 0.98 |
| GUUAACGGUCAUAGGCCAUGGAAACUAGGAGCACCAUUUCGCUGCCAGUGAAGAAAUGAACAAAGAAAGUCUGGGCCAGGCAGGCAUCAAAAGAAAUAGUCUCGCGCUCAACCAGAAAGUCUGUAAUCAUUUUAAGGGUA [A69G U103C] | 0.73 |
| GUUAACGGACAUAGGCCAUGGAGACUAGGAGCACCAUUUCGCUGCCAGUGAAGAAAUGAACAAAGAAAAUCUGGGCCAGGCAGGCAUCAAAAGAAAUAGUCUUGCGCUCAACCAGAAAGUCUGUAAUCAUUUUAAGGGUA [U9A A23G] | 0.95 |
| GUUAACGGUCAUAGGCCAUGGAAACUAGGAGCACCAUUUCGCUGCCAGUGAAGAAAUUAACAAAGAAAAUCUGGGCCAGGCAGGCAUCAAAAGAAAUAGUCUUGCGCUCAACCAGAAAGUCUGUAACCAUUUUAAGGGUA [G58U U127C] | 1.33 |
| GUUAACGGUCAUAGGCCAUGGAAACUAGGAGCACCAUUUCGCUGCCAGUGAUGAAAUGAACAAAGAAAAUCUGGGCCAGGCAGGCAUCAAAAGAAAUAGUCUUGCGCUCAACCAGAAAGUCUGUAACCAUUUUAAGGGUA [A52U U127C] | 0.98 |
| GUUAACGGUCAUAGGCCAUGGAUACUAGGAGCACCAUUUCGCUGCCAGUGAAGAAAUGAACAAAGAAAAUCUGGGCCAGGCAGGCAUCAAAAGAGAUAGUCUUGCGCUCAACCAGAAAGUCUGUAAUCAUUUUAAGGGUA [A23U A95G] | 1.75 |
| GUUAACGGUCAUAGGCCAUGGAAACUAGGAGCACCAUUUCACUGCCAGUGAAGAAAUGAACAGAGAAAAUCUGGGCCAGGCAGGCAUCAAAAGAAAUAGUCUUGCGCUCAACCAGAAAGUCUGUAAUCAUUUUAAGGGUA [G41A A63G] | 1.4 |
| GUUAACGGUCAUAGGCCAUGGAAACUAGGAGCACCAUUUCGCUGCCAGUGAGGAAAUGAACAAAGAAAAUCUGGGCCAGGCAGGCAUCAAAAGAAAUAGUCUUGCGCUCAACCAGAAAGUCAGUAAUCAUUUUAAGGGUA [A52G U122A] | 0.76 |
| GUCAACGGUCAUAGGCCAUGGAAACUAGGAGCACCAUUUCGCUGCCAGUGAAGAAAUGAACAAAGAAAAUCUGGGCUAGGCAGGCAUCAAAAGAAAUAGUCUUGCGCUCAACCAGAAAGUCUGUAAUCAUUUUAAGGGUA [U3C C77U] | 0.69 |
| GUUAACGGUCAUAGGCCAUGGAAACUAGGAGCACCAUUUCGCUGCCAGUGAAGAAAUGAACAAAGAAAAUCUGGGCCAGGCAGGCAUCAAAAGAAAUAGUCUUGCGCUCAACCAGAAAGUCUGUAUUCAUUUUAAGGGUA [A126U] | 0.78 |
